The target of the test is TEAD. The test is described as follows: IC50 for TEAD binding; method not named in the example (TR-FRET test is the filing's screening method).

Among the data in patent US20170319648A1 are IC50 values, retold here.

Positions of bridges follow the written chain, without caps; N, C: chain ends. Non-standard residues stand in square brackets, D forms with d. No end group written: not given here. hCys = N[C@@H](CCS)C(=O)O; Orn = NCCC[C@H](N)C(=O)O; Dab = NCC[C@H](N)C(=O)O

Chain of TEAD (P28347 209-426): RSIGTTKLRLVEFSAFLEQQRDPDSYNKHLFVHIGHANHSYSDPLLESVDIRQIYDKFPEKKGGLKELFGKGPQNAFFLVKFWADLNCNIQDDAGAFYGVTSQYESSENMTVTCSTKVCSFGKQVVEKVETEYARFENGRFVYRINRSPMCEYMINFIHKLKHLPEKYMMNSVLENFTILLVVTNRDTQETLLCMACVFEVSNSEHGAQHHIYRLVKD

B1: polypeptide of SEQ ID NO.: 5 (VPF(Hcy)LR(Orn)…) (peptide)
peptide: VPF[hCys]LR[Orn]LPDSFCKPPE
modifications: disulfide 4-13
Usually IC50 stands for the concentration needed to halve the response being measured. Low readings indicate inhibition by little substance, high ones a need for much substance. For the molecule B1, the IC50 stood at 43 nM.

B2: polypeptide of SEQ ID NO.: 6 (VPF(Hcy)LR(Dab)…) (peptide)
peptide: VPF[hCys]LR[Dab]LPDSFCKPPE
modifications: disulfide 4-13
Regarding B2, the IC50 was 28 nM.
